PMC5772683

Biological target: microtubules (MTs) assembled from bovine brain tubulin (bovine) (UniProt Q6B856)
Experiment: co-sedimentation

Substance: human Profilin-1 (PFN1), wildtype (from UniProt P07737 1-140) (natural protein)
- Kd: 10.7 µM
